Data reported in IntAct's records for PubMed 17392269.

B1: Protein Pixie (Drosophila melanogaster (Fruit fly)), Q9VSS1 (parent)
chain: MSRRKENEEVDKQTRIAIVSDDKCKPKRCRQECKKTCPVVRMGKLCIEVTPTSKIASLSEELCIGCGICVKKCPFEAITIINLPSNLEKHTTHRYSKNSFKLHRLPIPRPGEVLGLVGQNGIGKSTALKILAGKQKPNLGKYANPPDWTEILSYFRGSELQNYFTKILEDNLKALVKPQYVDQIPKAVRGAVGDLLDKKDERELQTKICEMLDLSHIRDREIAQLSGGELQRFAIAMVCIQNADIFMFDEPSSYLDVKQRLNAALTIRSLLHPTKFIIVVEHDLSVLDYLSDFICCLYGVPGCYGVVTMPFSVREGINIFLDGFVPTENMRFRTESLTFKVSESATEEEIKRMNHYVYPAMVKTLGKFELTVEKGHFSDSEILVLLGENGTGKTTFIRMLAGNLQPDGEVELPMLNISYKPQKISPKFQNHVRHLLHDKIRDAYVHPQFIADVMKPMKIEEIMDQEVQNLSGGELQRVALVLCLGKPADVYLIDEPSAYLDSEQRLVAAKVIKRYILHAKKTGFVVEHDFIMATYLADRVIVIEGQPSVKTTAFSPQSLLNGMNRFLELLGITFRRDPNNFRPRINKNNSVKDTEQKRSGQFFFLEDEACN
partner: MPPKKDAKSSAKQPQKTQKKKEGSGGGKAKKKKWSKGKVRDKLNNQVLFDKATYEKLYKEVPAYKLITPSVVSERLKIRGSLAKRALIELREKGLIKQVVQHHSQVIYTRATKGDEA

Variants of: B1
Conditions: with rs25_drome RpS25, P48588

| Variant | effect of a mutation on the interaction |
| --- | --- |
| E503Q | increasing interaction |
